Measured values published in publication PMC6106110, “Aspf2 From Aspergillus fumigatus Recruits Human Immune Regulators for Immune Evasion and Cell Damage” (Frontiers in Immunology, 2018).
Read-outs that look alike come from different tables or passages of the source.

B1: Recombinant Aspf2 (A. fumigatus) lacking the N-terminal 19-amino acid signal peptide, His-tagged (natural protein, Aspergillus fumigatus, UniProt P79017 20-310, looked up)
chain: TLPTSPVPIAARATPHEPVFFSWDAGAVTSFPIHSSCNATQRRQIEAGLNEAVELARHAKAHILRWGNESEIYRKYFGNRPTMEAVGAYDVIVNGDKANVLFRCDNPDGNCALEGWGGHWRGANATSETVICDRSYTTRRWLVSMCSQGYTVAGSETNTFWASDLMHRLYHVPAVGQGWVDHFADGYDEVIALAKSNGTESTHDSEALQYFALEAYAFDIAAPGVGCAGESHGPDQGHDTGSASAPASTSTSSSSSGSGSGATTTPTDSPSATIDVPSNCHTHEGGQLHCT
notes: Aspf2 of Aspergillus fumigatus, a 310 amino acid-long protein; cloned from cDNA of strain CEA17 akuB^KU80 without the N-terminal 19-amino acid signal peptide; also called ΔN19AspF2; source: Pichia pastoris X33 (pPICZαB), culture supernatant, purified (HisTrap column)

Assays:
[1] = target: Aspf2 expressed on the surface of A. fumigatus conidia (Aspergillus fumigatus (endogenous in CEA17 ΔakuB^Ku80 conidia)) (UniProt P79017); experiment: flow cytometry on cells; wild-type, Δaspf2 and aspf2^C conidia (BSA-treated) incubated with increasing amounts of purified Factor H, FHL-1, FHR1 or plasminogen 1 h at RT; bound protein detected with antibodies; median fluorescence intensity
[2] = target: Recombinant Aspf2 (A. fumigatus) lacking the N-terminal 19-amino acid signal peptide, His-tagged (Aspergillus fumigatus) (UniProt P79017); experiment: BLI; Aspf2 loaded on Ni(II)-NTA biosensor; analyte Factor H 190-3,000 nM (150 s association, 150 s dissociation) or plasminogen 687.5-5,500 nM (200 s each); buffer control subtracted, BLITZ software
[3] = target: Aspf2 expressed on the surface of A. fumigatus conidia (Aspergillus fumigatus (endogenous in CEA17 ΔakuB^Ku80 conidia)) (UniProt P79017); experiment: flow cytometry on cells; wild-type, Δaspf2 and aspf2^C conidia (BSA-treated) incubated with increasing amounts of purified Factor H, FHL-1, FHR1 or plasminogen 1 h at RT; bound protein detected with antibodies; median fluorescence intensity; remark: listed apart in the source
[4] = target: T1, Human Factor H (human, UniProt P08603 19-1231); experiment: BLI; Aspf2 loaded on Ni(II)-NTA biosensor; analyte Factor H 190-3,000 nM (150 s association, 150 s dissociation) or plasminogen 687.5-5,500 nM (200 s each); buffer control subtracted, BLITZ software; settings: both partners purified
T1 construct: human complement Factor H, 150-kDa plasma protein composed of 20 short conserved repeats (SCR); also called NHS derived Factor H; source: bought: CompTech (purified human Factor H); also in normal human serum (NHS-EDTA) and C3 depleted serum
T1 sequence (P08603 19-1231): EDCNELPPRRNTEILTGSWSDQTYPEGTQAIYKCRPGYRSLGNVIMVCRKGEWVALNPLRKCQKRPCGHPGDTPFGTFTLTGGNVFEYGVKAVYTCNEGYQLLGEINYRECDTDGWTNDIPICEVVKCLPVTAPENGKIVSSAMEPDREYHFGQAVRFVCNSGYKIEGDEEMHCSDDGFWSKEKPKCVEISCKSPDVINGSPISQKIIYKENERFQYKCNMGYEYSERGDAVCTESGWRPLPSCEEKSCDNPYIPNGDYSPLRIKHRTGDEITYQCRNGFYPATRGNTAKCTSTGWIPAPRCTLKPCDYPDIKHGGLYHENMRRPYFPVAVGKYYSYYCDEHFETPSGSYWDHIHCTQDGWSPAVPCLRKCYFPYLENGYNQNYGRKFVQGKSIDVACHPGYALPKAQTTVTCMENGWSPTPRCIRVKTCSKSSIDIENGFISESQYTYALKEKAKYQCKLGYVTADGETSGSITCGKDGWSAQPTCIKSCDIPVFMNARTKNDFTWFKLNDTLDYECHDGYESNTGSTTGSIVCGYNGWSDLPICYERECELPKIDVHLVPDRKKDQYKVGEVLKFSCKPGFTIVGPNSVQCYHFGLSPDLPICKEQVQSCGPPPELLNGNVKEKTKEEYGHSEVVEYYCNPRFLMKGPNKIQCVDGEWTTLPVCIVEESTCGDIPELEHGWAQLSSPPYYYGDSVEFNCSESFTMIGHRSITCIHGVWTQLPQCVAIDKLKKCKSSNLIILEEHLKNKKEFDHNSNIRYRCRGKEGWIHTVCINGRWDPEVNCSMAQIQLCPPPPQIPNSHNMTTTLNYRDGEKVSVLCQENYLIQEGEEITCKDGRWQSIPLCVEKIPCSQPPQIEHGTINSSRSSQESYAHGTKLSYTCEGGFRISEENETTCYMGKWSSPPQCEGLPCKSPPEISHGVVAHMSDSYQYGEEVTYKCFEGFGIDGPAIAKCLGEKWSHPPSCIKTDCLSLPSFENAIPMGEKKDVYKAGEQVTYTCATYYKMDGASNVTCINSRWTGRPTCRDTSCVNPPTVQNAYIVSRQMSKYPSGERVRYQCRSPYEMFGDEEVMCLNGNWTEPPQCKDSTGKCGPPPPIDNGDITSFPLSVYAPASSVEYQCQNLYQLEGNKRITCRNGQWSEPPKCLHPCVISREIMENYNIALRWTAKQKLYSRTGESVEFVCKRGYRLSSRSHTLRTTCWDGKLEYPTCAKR

| Molecule | percent lower binding to Δaspf2 conidia than to wild-type conidia (plasminogen at 20 µg/ml) [1] [%] | Kd [2] [nM] | percent lower binding to Δaspf2 conidia than to wild-type conidia (plasminogen at 20 µg/ml) [3] [%] | Kd [4] [nM] |
| --- | --- | --- | --- | --- |
| Human plasminogen (natural protein) | 31 | 846 | 24 | – |
| B1 | – | – | – | 76 |
